From patent publication US20240010722A1
Where a chain is given by its changes, count along the chain named. Several values for one entry are separate records, joined by “and”; a condition that tells them apart may be missing. Equal entries are not always repeated. Values belong to the binder of their own block, whether it stands above or below them.

Biological target: Insulin
Experiment: polyreactivity ELISA on insulin coat, 100 nM

Sequence of Insulin (P01308 25-54, chain 1 of 2): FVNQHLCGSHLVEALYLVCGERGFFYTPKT
Sequence of Insulin (P01308 90-110, chain 2 of 2): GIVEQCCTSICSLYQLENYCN

Insulin polyreactivity score: 3.19 and 3.63
B1: MIAB198 (antibody, V domains shown)
VH: EVQLLESGGGLVQPGGSLRLSCAASGFTFSDFWMHWVRQAPGKGLEWISYISGDSGYTNYADSVKGRFTISRDNSKNTLYLQMNSLRAEDTAVYYCARDRPYYYIMDVWGKGTTVTVSS
VL: DIQMTQSPSSLSASVGDRVTITCRASQSVSRSLAWYQQKPGKAPKLLIYAASSLQSGVPSRFSGSGSGTDFTLTISSLQPEDFATYYCQQYKSYPVTFGQGTKVEIK

Insulin polyreactivity score: 7.07
B2: MIAB164 (antibody, V domains shown)
VH: B1 VH with I105Y
VL: B1 VL with A34T

Insulin polyreactivity score: 25.5
B3: MIAB134 (antibody, V domains shown)
VH: B1 VH with D31A, I105Y
VL: B1 VL

Insulin polyreactivity score: 29.6
B4: MIAB167 (antibody, V domains shown)
VH: B1 VH with I105Y
VL: B1 VL with A34K

Insulin polyreactivity score: 7.89
B5: MIAB166 (antibody, V domains shown)
VH: B1 VH with I105Y
VL: B1 VL with A34E

Insulin polyreactivity score: 8
B6: MIAB131 (antibody, V domains shown)
VH: B1 VH with I105G
VL: B1 VL

Insulin polyreactivity score: 3.26
B7: MIAB130 (antibody, V domains shown)
VH: B1 VH with I105Q
VL: B1 VL

Insulin polyreactivity score: 9.53
B8: MIAB165 (antibody, V domains shown)
VH: B1 VH with I105Y
VL: B1 VL with A34S

Insulin polyreactivity score: 5
B9: MIAB161 (antibody, V domains shown)
VH: B1 VH with N74Q, I105Y
VL: B1 VL

Insulin polyreactivity score: 5.31
B10: MIAB162 (antibody, V domains shown)
VH: B1 VH with I105Y
VL: B1 VL with A34G

Insulin polyreactivity score: 3.74
B11: MIAB150 (antibody, V domains shown)
VH: B1 VH with I105Y
VL: B1 VL with V29I, S32Y

Insulin polyreactivity score: 45.2
B12: MIAB156 (antibody, V domains shown)
VH: B1 VH with I105Y
VL: B1 VL with V29I, S32Y, A34N

Insulin polyreactivity score: 17.8
B13: MIAB160 (antibody, V domains shown)
VH: B1 VH with N59Q, I105Y
VL: B1 VL

Insulin polyreactivity score: 3.79
B14: MIAB172 (antibody, V domains shown)
VH: B1 VH with Y102T, I105Y
VL: B1 VL

Insulin polyreactivity score: 2.83
B15: MIAB152 (antibody, V domains shown)
VH: B1 VH with I105Y
VL: B1 VL with R31S, S32Y

Insulin polyreactivity score: 4.66
B16: MIAB159 (antibody, V domains shown)
VH: B1 VH with D54E, I105Y
VL: B1 VL

Insulin polyreactivity score: 1.99
B17: MIAB155 (antibody, V domains shown)
VH: B1 VH with I105Y
VL: B1 VL with V29I, R31S, A34N

Insulin polyreactivity score: 2.67
B18: MIAB158 (antibody, V domains shown)
VH: B1 VH with I105Y
VL: B1 VL with R31S, S32Y, A34N

Insulin polyreactivity score: 8.35
B19: MIAB168 (antibody, V domains shown)
VH: B1 VH with I105Y
VL: B1 VL with A34L

Insulin polyreactivity score: 61.9
B20: MIAB154 (antibody, V domains shown)
VH: B1 VH with I105Y
VL: B1 VL with S32Y, A34N

Insulin polyreactivity score: 18.5
B21: MIAB163 (antibody, V domains shown)
VH: B1 VH with I105Y
VL: B1 VL with A34D

Insulin polyreactivity score: 2.43
B22: MIAB129 (antibody, V domains shown)
VH: B1 VH with Y102G, I105Y
VL: B1 VL

Insulin polyreactivity score: 3.99
B23: MIAB157 (antibody, V domains shown)
VH: B1 VH with I105Y
VL: B1 VL with V29I, R31S, S32Y

Insulin polyreactivity score: 2.62
B24: MIAB128 (antibody, V domains shown)
VH: B1 VH with Y102N, I105Y
VL: B1 VL
